Experiment: soluble on expression in E. coli; label from the status in PepcDB or PDB records

Row | Sequence | soluble on expression in E. coli
1 | MKTLHSLSEQLGGLLANQQQILASAESCTGGGVAYWVTEVAGSSAWFDRSFVTYSNEAKQEMLGVRQATLQQFGAVSEQTVEEMALGALLHSKATLAAAISGIAGPGGGSAEKPVGTVCFGFASVQGWLKVETCHFTGDREQVRQQAIAHVLQSLIEHLAADQVQNVN | not soluble
2 | MSLGKEKKVYIFDSILRDGSQAQGVSFSVADKIKIVKKLDELGIDYIEAGNPSSNPKDREFFEEIRSLKLKHSKLCAFGSTRRAGAKAEEDEGIKKLVDSGVNVFSIFGKAWDFHVTDIIKTSIEENLNMIRDSIKYLVSLNKEVVFDAEHFFDGFKSNKEYAIEVLNTARLAGAKWIVLCDTNGGTMPNEVSDIVKYLVRDLNFDNLGVHFHDDSGMAVANSVVAVHYGVNHVQGTFTGVGERCGNANLSNIIANLSLKMGYNTIKNDKLEYLTVAFRYICEACNMTPNERVAYVGNCAFSHKGGMHIDAVRKNPKSFEHIDPSRVGNSRRILVSEVSGRSTILPALKRINPKIDKDSPETKAVVKRIKDLEYLGYQFEGAEGSFELLMRKELNVFRPSFELVEYKVIAERPYLSDLSATAIVKIMVNGKLETTAADGKGPVNALDKALRKALGVFYKELANVYLTDYKVRVISGTKATSAKIRVLIESTDGVSTWTTVGVSYDIIEASWLALVDSVEYKLIQCNKEENNNEKTDDYDTKNTEGHHHHHH | soluble
3 | MSLLKQKITQAPKTKISQTLRSWLPILQANIEDLKENLDKFAEDNPFLNVQDSIQTHDKGKNYFDSFYKHNVNSAFVDSKGLAKKSVYELLNEQILPPLFPTNKSQELAKKIIECLNEEGYFEYDEEFLKEYSLEEIERVRARFKFLDPVGVGAKDYKEAFLFALENMELDEDIDEFCRMLIMDFENIQNYTKEPLYKEALAVLKRFSTPPFLEYFEDSRIIVPDIFVYKENGEIKVKINDDYYPEISIQTDGLEHDFLSHYIKEAKNLVDALAMRKATLYKIGLMIVEYQYDFFMGKEIKPMTFKDLALDLERNASTISRAVANKYLSCERGLIPLRDFFAFALDEEGETSNVGVKEFVANLVKNEDRNKPLSDSKILELIKEEFKVDIGRRTITKYRKHLNIASSTDRKKLYELEGEGHHHHHH | soluble
4 | MKPSWDIFCSVVDNYGDAGVTWRLARQLVAEHDVQVRLWIDDLAAFVRLCPDADPCASQQLREGVSVCRWPADWVSSTVPDVVIEAFACRLPTSYTESMLQRSPRPLWLNLEYLSAEDWVSGCHGLPSPQMNGLKKFFFFPGFADTTGGLLRERNLIGQRQAFQQDKALQQAFLQELNVEPLAGARLISVFAYETPRLDSWLDALASDSRPTHLLVPEGRILADVQRWLGSEGQLHAGTVQASGALTVQVLPFIRQERYDQLLWSCDFNVVRGEDSFVRAQWAGRPMLWHIYQQEEDAHLPKLDAFLALYL | not soluble
5 | MWKITENLYLAQLPMIVGPTSKQEFSKNDIKRVLTLTTEPISEKQKIGGVDYKFLHLLDMPDEPILDNAILETAVLYINEGVEKEENVGVHCLAAVSRSVSICAAYLMYKNQWPVEKALKMIESVRKTIGPNAGFLAQLKIWERSGMSFSADQYKNLKIDIPGITCVDSKTIWRQPVIDDQTKVRFKCRQCRKVIFNSDNIVHPLAEACQKYLIEPMAWLNVSGATCSVSHTCGAKLGTFIASGSKCNGCNKFVRQWIFINRTKLDKVEIAT | not soluble
6 | MGSDKIHHHHHHMKNKAESLASSSASILTLGLGWFPKNPGGLERYMYELTHKLAANKDQIELCGVGLPEAERNSPIKLTNLASPDSAIWQRLWSIRTNFQKTRTNKPDAINLHFALYSFPLLDILPKGVPVTFNFHGPWASESQQEVVNKNLSLLIKHHLIEKNTYNHCDRFIVLSKAFGKILHDKYQVPWSKINIIPGGVDINWFQPNLSRQDACKQLGWPNNRRIIFTSRRLVHRTGVDKLLKALAIIKPRIPDVWLAIAGRGHIQAALQQQATELGLDDNVKFLGFLPDEQLPIAYQAAELTIMPSQSFEGFGLVIVESLACGTPVLCTPVGGMPEILSEFSPDLITTSTEASAIAEKLEQVLLGNIPIPSREACRHYAVTHYDWNQIAQQVRNVLLN | not soluble
7 | MKVMECQTYEELSQIAARITADTIKEKPDAVLGLATGGTPEGTYRQLIRLHQTENLSFQNITTVNLDEYAGLSSDDPNSYHFYMNDRFFQHIDSKPSRHFIPNGNADDLEAECRRYEQLVDSLGDTDIQLLGIGRNGHIGFNEPGTSFKSRTHVVTLNEQTRQANARYFPSIDSVPKKALTMGIQTILSSKRILLLISGKSKAEAVRKLLEGNISEDFPASALHLHSDVTVLIDREAASLRP | soluble
8 | MGSDKIHHHHHHMMGGKTLVLLDERLISLSMTDNRGFDADQVTLSVDDADGLLQLPPRGADLSVSIGWKGEALVYKGVFIVDEVAHSGPPDTLEVTARSADFRDEFNVKREISWHDLTVERVVSAIAHRYKLKPVISAQLMDLEIDHADQTQESDMSFLTRMAEMLGAIATVKNGCLLFILPGGGVSASGKPLPAAEITRSSGDRHSFRIADRDAYTGVRAYWLDLNFGKKKKVSVKRRKAKPKKEKSSSREGDYMEGEDGNVYVLRKTYQNETAAKRAAAAKWQQLQRGAAQFSITLARGRADLYPEVHVSVSGFKADIDNQEWIISRVEHVIDGSGFTSRLELEAKIADWIAESD | not soluble
9 | MSLGDSRGRVFSWSVSDQPGRSAADHWVKDEGGDSCSGCSVRFSLTERRHHCRNCGQLFCQKCSRFQSEIKRLKISSPVRVCQNCYYSLQHERGAEDGPRNCEGHHHHHH | soluble
10 | MGSDKIHHHHHHMDNKEKEDEELSDELKDQPGPSEKPRTPTVVAFTKPSFYRVNTVISDVKVCRSMSYDMCGNHQQELLFDLYKDETTGKVYLPRFFKALLESGIRKDDPRIDKMIQNIKDADLLDDFVWGTQHIYLEKDTFKRYIGSSIGVVTKALKKQMIIPDWERFVSDMGEIFEDVRSHNEGDLATYIPQLSRVAPDSWAMSVCTIDGQRKMWGDALKPFCLQSVSKPFTYALVHDDIGPEELHAHVGQEPSGRLFNDISLDHNKKPHNPLINAGAIVVASLLKNKLPLADRFDFMIHACRKFVGSGYIGFDNSVFLSERETADRNYALSYYMREHKVFPKDLNLQDTLDLYFQICSIETNCDSLAVMAATLANGGVNPMNGERIVNNRACRDTLSLMYSCGMYDWSGQFAFHVGLPAKSGVSGDMIIVIPNVMGIALYSPRLDKLGNTVRGVKFAEQLVQKYNFHNYDSLIYSDNKKIDPRRQLKDDHDGQNRFMYATKLGDIAAIKRFLLMGHDIHCKDYDDRTVLHVAAAEGDVVTLEYVLSKWQEDPNPCDRYDRTPLDDAKHFNHTACVKLLEEAITVYNLKGQDD | not soluble
11 | MSLKITQIQAQNKNKNRRNVFVDGSYEFSCDMEIILKYKLKEGLEIDRTKLLQVIDQSKEEFAFRLALNYLSFKSRTSFEIYTYLLKKEYEEKIIEKVIEKLKYYRYVDDNQYVLNYIKTALAEGKKGKDRVQSDLINKKIPQDMIESHMHLFSCETNLEIAKELSNKYFKQNAHLPFNQFKNKLSQFLMRKGFNWEIINTCLNILEQDSEVQSHIDSNKELYVKEAIKLGNKYFVKYKAKETNPYLVEHKVKSHLYQKGYDKDTINLAFKKIIENSEGHHHHHH | not soluble
12 | MAHHHHHHMTAALNRKFDLLQKSGTCPSYLLDVLTLLVAHANETELFKQELRSAPFENAAPPLRADRGMVAAAAPQPEMGTQTVTQPEAPGTEKEVLLAAERTLRAYASDLRKINDIAMATSSKKLREMKMSNFTEMAAFRDRVVSDAVDRAREELELLRMGWLESMNTEVERAKMEVHKVGLSSQKALHKMLEGYRDYVSDGFRLLKTEPLEVMHRAMAECAFCVERLKIMEQQVVPRIEIDALCGRLKSVERVIAQMLKKRHSSGVVDDEISVVPTAGPSETGASTAAAGDDRPLGLRLRDGGNDVEGLIVTEVAPNSLASKARISPGQIISHVGDALVTRRDDFTTAMQKTGSAAKLTIYDPETAVVRILTLKP | soluble
13 | MGSDKIHHHHHHMTEQVVATETVNLSQDSLQIAAYLAQPQAPGSYPGVVVLQEIFGVNGHIRDVTERIAKLGYVAIAPALFQRQAPGFETGYTPQDIEVGRGYAMQTKASELLNDIQAAIDYLKTLPQVKQNGFGCIGFCFGGHVAYLAATLPDIKATASFYGAGIATRTFGGGNPTVTRTPEIKGTLYGFFGTEDASIPPEQIDQIETELEKYNISHRVFRYDGADHGFFCDRRASYNPQAAADAWEQVQQLFKTVLTT | not soluble
14 | MSVFSLKIDIADNKFFNGETSPLFSQSQAKLARQFHQKIAGYRPTPLCALDDLANLFGVKKILVKDESKRFGLNAFKMLGGAYAIAQLLCEKYHLDIETLSFEHLKNAIGEKMTFATTTDGNHGRGVAWAAQQLGQNAVIYMPKGSAQERVDAILNLGAECIVTDMNYDDTVRLTMQHAQQHGWEVVQDTAWEGYTKIPTWIMQGYATLADEAVEQMREMGVTPTHVLLQAGVGAMAGGVLGYLVDVYSPQNLHSIIVEPDKADCIYRSGVKGDIVNVGGDMATIMAGLACGEPNPLGWEILRNCATQFISCQDSVAALGMRVLGNPYGNDPRIISGESGAVGLGVLAAVHYHPQRQSLMEKLALNKDAVVLVISTEGDTDVKHYREVVWEGKHAVAP | not soluble
15 | MGSDKIHHHHHHMSKKTYYYHSESEDLVSSAQQDFQLPDDYQFFREGVAWQFWNGLVRSLACAFAWLYSRLFLLVKVKGKEKLRPFKKQGYFVYGNHTQMLGDPFNPMTIVNPYHYYALAAQANWGIPFLGKYVIPAAGLPVGKNIKQSIRLLKDVKYAYEEKQAAIVIYPEAHLWPYYTKIRPFPATSFNFPVSLKAPAFAMTTTYQPCRWRKRPKITVYIDGPFYPDEKLGKKAAQEKLHGEIAKSMQERAKLSTCEYCSYVKIDSKN | not soluble
16 | MHHHHHHGGGGGMINKPNQFVNHLSALKKHFASYKELREAFNDYHKHNGDELTTFFLHQFDKVMELVKQKDFKTAQSRCEEELAAPYLPKPLVSFFQSLLQLVNHDLLEQQNAALASLPAAKIIELVLQDYPNKLNMIHYLLPKTKAFVKPHLLQRLQFVLTDSELLELKRFSFFQALNQIPGFQGEQVEYFNSKLKQKFTLTLGEFEIAQQPDAKAYFEQLITQIQQLFLKEPVNAEFANEIIDAFLVSYFPLHPPVPLAQLAAKIYEYVSQIVLNEAVNLKDELIKLIVHTLYEQLDRPVGDEN | soluble
17 | MGSDKIHHHHHHMMQNNPFPYSNTEKRYHTLNYHLREHFGHKVFKVALDGGFDCPNRDGTVAHGGCTFCSAAGSGDFAGNRTDDLITQFHDIKNRMHEKWKDGKYIAYFQAFTNTHAPVEVLREKFESVLALDDVVGISIATRPDCLPDDVVDYLAELNERTYLWVELGLQTVHERTALLINRAHDFNCYVEGVNKLRKHGIRVCSHIINGLPLEDRDMMMETAKAVADLDVQGIKIHLLHLLKGTPMVKQYEKGKLEFLSQDDYVQLVCDQLEIIPPEMIVHRITGDGPIELMIGPMWSVNKWEVLGAINKELENRGSYQGKFFQRLEEESAL | not soluble
18 | GFRKMAFPSGKVEGCMVQVTCGTTTLNGLWLDDTVYCPRHVICTAEDMLNPNYEDLLIRKSNHSFLVQAGNVQLRVIGHSMQNCLLRLKVDTSNPKTPKYKFVRIQPGQTFSVLACYNGSPSGVYQCAMRPNHTIKGSFLNGSCGSVGFNIDYDCVSFCYMHHMELPTGVHAGTDLEGKFYGPFVDRQTAQAAGTDTTITLNVLAWLYAAVINGDRWFLNRFTTTLNDFNLVAMKYNYEPLTQDHVDILGPLSAQTGIAVLDMCAALKELLQNGMNGRTILGSTILEDEFTPFDVVRQCSGVTHHHHHH | soluble

From the DeepSol protein solubility set
